Measured values from patent US20120108796A1 (Bayer, published 2012).

The binders below were run against T1, recombinant TFPI of the FXa restoring assay (human, mouse or rat; species not stated for Tables 9 and 10) (assay: cell-based or functional assay).

Row | Binder | EC50, FXa restoring assay [nM] | Improvement of EC50 vs 2A8 wt [fold]
1 | 2A8 wild-type Fab (Fab, V domains shown) VH: QVQLVESGGGLVQPGGSLRLSCAASGFTFRSYGMSWVRQAPGKGLEWVSSIRGSSSSTYYADSVKGRFTISRDNSKNTLYLQMNSLRAEDTAVYYCARKYRYWFDYWGQGTLVTVSS VL: DIELTQPPSVSVAPGQTARISCSGDNLRNYYAHWYQQKPGQAPVVVIYYDNNRPSGIPERFSGSNSGNTATLTISGTQAEDEADYYCQSWDDGVPVFGGGTKLTVLG | 7.91 | 1
2 | 2A8-200 (Fab, V domains shown) VH: QVQLVESGGGLVQPGGSLRLSCAASGFTFRSYGMDWVRQAPGKGLEWVSSIRGSRSSTYYADSVKGRFTISRDNSKNTLYLQMNSLRAEDTAVYYCARLYRYWFDYWGQGTLVTVSS VL: DIELTQPPSVSVAPGQTARISCSGDNLRNYYAHWYQQKPGQAPVVVIFYDVNRPSGIPERFSGSNSGNTATLTISGTQAEDEADYYCQSWWDGVPVFGGGTKLTVLG | 0.81 | 9.7
3 | 2A8-216 (Fab, V domains shown) VH: QVQLVESGGGLVQPGGSLRLSCAASGFTFRVYGMSWVRQAPGKGLEWVSSDRGSRSSTYYADSVKGRFTISRDNSKNTLYLQMNSLRAEDTAVYYCARVYRYWFDYWGQGTLVTVSS VL: DIELTQPPSVSVAPGQTARISCSGDNLRNYYAHWYQQKPGQAPVVVIFYDNNRPSGIPERFSGSNSGNTATLTISGTQAEDEADYYCQSWLDGVPWFGGGTKLTVLG | 1.08 | 7.3
4 | 2A8-143 (Fab, V domains shown) VH: QVQLVESGGGLVQPGGSLRLSCAASGFTFRSYGMDWVRQAPGKGLEWVSSIRGSRSSTYYADSVKGRFTISRDNSKNTLYLQMNSLRAEDTAVYYCARLYRYWFDYWGQGTLVTVSS VL: DIELTQPPSVSVAPGQTARISCSGDNLRNYYAHWYQQKPGQAPVVVIFYDVNRPSGIPERFSGSNSGNTATLTISGTQAEDEADYYCQSWLDGVPWFGGGTKLTVLG | 0.5 | 15.8
5 | 2A8-127 (Fab, V domains shown) VH: QVQLVESGGGLVQPGGSLRLSCAASGFTFRSYGMDWVRQAPGKGLEWVSSIRGSSSSTYYADSVKGRFTISRDNSKNTLYLQMNSLRAEDTAVYYCARLYRYWFDYWGQGTLVTVSS VL: DIELTQPPSVSVAPGQTARISCSGDNLRNYYAHWYQQKPGQAPVVVIFYDVNRPSDIPERFSGSNSGNTATLTISGTQAEDEADYYCQSWDDGVPWFGGGTKLTVLG | 0.44 | 18.2
6 | 2A8 HC K99L (Fab, V domains shown) VH: QVQLVESGGGLVQPGGSLRLSCAASGFTFRSYGMSWVRQAPGKGLEWVSSIRGSSSSTYYADSVKGRFTISRDNSKNTLYLQMNSLRAEDTAVYYCARLYRYWFDYWGQGTLVTVSS VL: DIELTQPPSVSVAPGQTARISCSGDNLRNYYAHWYQQKPGQAPVVVIYYDNNRPSGIPERFSGSNSGNTATLTISGTQAEDEADYYCQSWDDGVPVFGGGTKLTVLG | 1 | 7.9

Target: T1, recombinant TFPI of the FXa restoring …
Assay: cell-based or functional assay
Remark: another data set of the same source

Row | Binder | IC 50, FXa restoring assay [µg/mL] | Improvement of IC50 vs 4B7wt [fold] | Improvement of IC50 vs 2A8wt [fold]
7 | 4B7 wild-type Fab (Fab, V domains shown) VH: QVQLQQSGPGLVKPSQTLSLTCAISGDSVSSNSAAWSWIRQSPGRGLEWLGIIYKRSKWYNDYAVSVKSRITINPDTSKNQFSLQLNSVTPEDTAVYYCARWHSDKHWGFDYWGQGTLVTVSS VL: DIVMTQSPLSLPVTPGEPASISCRSSQSLVFSDGNTYLNWYLQKPGQSPQLLIYKGSNRASGVPDRFSGSGSGTDFTLKISRVEAEDVGVYYCQQYDSYPLTFGQGTKVEIKR | 1.46 | 1 | 
8 | 4B7 HC D62R (Fab, V domains shown) VH: QVQLQQSGPGLVKPSQTLSLTCAISGDSVSSNSAAWSWIRQSPGRGLEWLGIIYKRSKWYNRYAVSVKSRITINPDTSKNQFSLQLNSVTPEDTAVYYCARWHSDKHWGFDYWGQGTLVTVSS VL: DIVMTQSPLSLPVTPGEPASISCRSSQSLVFSDGNTYLNWYLQKPGQSPQLLIYKGSNRASGVPDRFSGSGSGTDFTLKISRVEAEDVGVYYCQQYDSYPLTFGQGTKVEIKR | 0.058 | 25 | 
9 | 2A8 wild-type Fab (Fab, V domains shown) VH: QVQLVESGGGLVQPGGSLRLSCAASGFTFRSYGMSWVRQAPGKGLEWVSSIRGSSSSTYYADSVKGRFTISRDNSKNTLYLQMNSLRAEDTAVYYCARKYRYWFDYWGQGTLVTVSS VL: DIELTQPPSVSVAPGQTARISCSGDNLRNYYAHWYQQKPGQAPVVVIYYDNNRPSGIPERFSGSNSGNTATLTISGTQAEDEADYYCQSWDDGVPVFGGGTKLTVLG | 0.7 |  | 1
10 | 2A8 HC S35D (Fab, V domains shown) VH: QVQLVESGGGLVQPGGSLRLSCAASGFTFRSYGMDWVRQAPGKGLEWVSSIRGSSSSTYYADSVKGRFTISRDNSKNTLYLQMNSLRAEDTAVYYCARKYRYWFDYWGQGTLVTVSS VL: DIELTQPPSVSVAPGQTARISCSGDNLRNYYAHWYQQKPGQAPVVVIYYDNNRPSGIPERFSGSNSGNTATLTISGTQAEDEADYYCQSWDDGVPVFGGGTKLTVLG | 0.55 |  | 1.1
11 | 2A8 HC S54F (Fab, V domains shown) VH: QVQLVESGGGLVQPGGSLRLSCAASGFTFRSYGMSWVRQAPGKGLEWVSSIRGFSSSTYYADSVKGRFTISRDNSKNTLYLQMNSLRAEDTAVYYCARKYRYWFDYWGQGTLVTVSS VL: DIELTQPPSVSVAPGQTARISCSGDNLRNYYAHWYQQKPGQAPVVVIYYDNNRPSGIPERFSGSNSGNTATLTISGTQAEDEADYYCQSWDDGVPVFGGGTKLTVLG | 0.35 |  | 2
12 | 2A8 LC D91L (Fab, V domains shown) VH: QVQLVESGGGLVQPGGSLRLSCAASGFTFRSYGMSWVRQAPGKGLEWVSSIRGSSSSTYYADSVKGRFTISRDNSKNTLYLQMNSLRAEDTAVYYCARKYRYWFDYWGQGTLVTVSS VL: DIELTQPPSVSVAPGQTARISCSGDNLRNYYAHWYQQKPGQAPVVVIYYDNNRPSGIPERFSGSNSGNTATLTISGTQAEDEADYYCQSWLDGVPVFGGGTKLTVLG | 0.37 |  | 1.7
13 | 2A8 LC Y48F (Fab, V domains shown) VH: QVQLVESGGGLVQPGGSLRLSCAASGFTFRSYGMSWVRQAPGKGLEWVSSIRGSSSSTYYADSVKGRFTISRDNSKNTLYLQMNSLRAEDTAVYYCARKYRYWFDYWGQGTLVTVSS VL: DIELTQPPSVSVAPGQTARISCSGDNLRNYYAHWYQQKPGQAPVVVIFYDNNRPSGIPERFSGSNSGNTATLTISGTQAEDEADYYCQSWDDGVPVFGGGTKLTVLG | 0.34 |  | 1.9
14 | 2A8 HC K99V (Fab, V domains shown) VH: QVQLVESGGGLVQPGGSLRLSCAASGFTFRSYGMSWVRQAPGKGLEWVSSIRGSSSSTYYADSVKGRFTISRDNSKNTLYLQMNSLRAEDTAVYYCARVYRYWFDYWGQGTLVTVSS VL: DIELTQPPSVSVAPGQTARISCSGDNLRNYYAHWYQQKPGQAPVVVIYYDNNRPSGIPERFSGSNSGNTATLTISGTQAEDEADYYCQSWDDGVPVFGGGTKLTVLG | 0.39 |  | 1.6
15 | 2A8 LC D91W (Fab, V domains shown) VH: QVQLVESGGGLVQPGGSLRLSCAASGFTFRSYGMSWVRQAPGKGLEWVSSIRGSSSSTYYADSVKGRFTISRDNSKNTLYLQMNSLRAEDTAVYYCARKYRYWFDYWGQGTLVTVSS VL: DIELTQPPSVSVAPGQTARISCSGDNLRNYYAHWYQQKPGQAPVVVIYYDNNRPSGIPERFSGSNSGNTATLTISGTQAEDEADYYCQSWWDGVPVFGGGTKLTVLG | 0.23 |  | 3
16 | 2A8 HC I51E (Fab, V domains shown) VH: QVQLVESGGGLVQPGGSLRLSCAASGFTFRSYGMSWVRQAPGKGLEWVSSERGSSSSTYYADSVKGRFTISRDNSKNTLYLQMNSLRAEDTAVYYCARKYRYWFDYWGQGTLVTVSS VL: DIELTQPPSVSVAPGQTARISCSGDNLRNYYAHWYQQKPGQAPVVVIYYDNNRPSGIPERFSGSNSGNTATLTISGTQAEDEADYYCQSWDDGVPVFGGGTKLTVLG | 0.76 |  | 0.9
17 | 2A8 HC S31P (Fab, V domains shown) VH: QVQLVESGGGLVQPGGSLRLSCAASGFTFRPYGMSWVRQAPGKGLEWVSSIRGSSSSTYYADSVKGRFTISRDNSKNTLYLQMNSLRAEDTAVYYCARKYRYWFDYWGQGTLVTVSS VL: DIELTQPPSVSVAPGQTARISCSGDNLRNYYAHWYQQKPGQAPVVVIYYDNNRPSGIPERFSGSNSGNTATLTISGTQAEDEADYYCQSWDDGVPVFGGGTKLTVLG | 0.33 |  | 1.7
18 | 2A8 LC D91K (Fab, V domains shown) VH: QVQLVESGGGLVQPGGSLRLSCAASGFTFRSYGMSWVRQAPGKGLEWVSSIRGSSSSTYYADSVKGRFTISRDNSKNTLYLQMNSLRAEDTAVYYCARKYRYWFDYWGQGTLVTVSS VL: DIELTQPPSVSVAPGQTARISCSGDNLRNYYAHWYQQKPGQAPVVVIYYDNNRPSGIPERFSGSNSGNTATLTISGTQAEDEADYYCQSWKDGVPVFGGGTKLTVLG | 0.34 |  | 1.9
19 | 2A8 HC S31V (Fab, V domains shown) VH: QVQLVESGGGLVQPGGSLRLSCAASGFTFRVYGMSWVRQAPGKGLEWVSSIRGSSSSTYYADSVKGRFTISRDNSKNTLYLQMNSLRAEDTAVYYCARKYRYWFDYWGQGTLVTVSS VL: DIELTQPPSVSVAPGQTARISCSGDNLRNYYAHWYQQKPGQAPVVVIYYDNNRPSGIPERFSGSNSGNTATLTISGTQAEDEADYYCQSWDDGVPVFGGGTKLTVLG | 0.201 |  | 3.5
20 | 2A8 HC K99L (Fab, V domains shown) VH: QVQLVESGGGLVQPGGSLRLSCAASGFTFRSYGMSWVRQAPGKGLEWVSSIRGSSSSTYYADSVKGRFTISRDNSKNTLYLQMNSLRAEDTAVYYCARLYRYWFDYWGQGTLVTVSS VL: DIELTQPPSVSVAPGQTARISCSGDNLRNYYAHWYQQKPGQAPVVVIYYDNNRPSGIPERFSGSNSGNTATLTISGTQAEDEADYYCQSWDDGVPVFGGGTKLTVLG | 0.181 |  | 3.9
